“And” between values parts separate entries of the source, which are not always exact repeats. Equal entries are not always repeated.
Columns and labels:
[1] = molecular target: HPV16 E6 PDZ ligand peptide (biotinylated C-terminal peptide of the E6 protein of HPV 16) (human papillomavirus 16) (UniProt P03126); assay: G assay ELISA, signal over GST-only well
[2] = molecular target: HPV16 E6 PDZ ligand peptide (biotinylated C-terminal peptide of the E6 protein of HPV 16) (human papillomavirus 16) (UniProt P03126); assay: G assay ELISA, immobilised GST-PDZ, 10 uM biotinylated peptide
[3] = molecular target: GST-Magi3 PDZ domain 1 (human) (UniProt Q5TCQ9); assay: Matrix/G assay ELISA, E6 peptide titrated on GST-PDZ
[4] = molecular target: GST-VARTUL PDZ domain (number not stated) (human) (UniProt Q14160); assay: as above
[5] = molecular target: GST-Magi3 PDZ domain 1 (human) (UniProt Q5TCQ9); assay: G assay ELISA, E6 PL peptide titrated on constant GST-PDZ
[6] = molecular target: GST-VARTUL PDZ domain (number not stated) (human) (UniProt Q14160); assay: as above
[7] = molecular target: GST-DLG-6 PDZ domain 1, clone #333.1 (human) (UniProt Q96JB8); assay: G assay ELISA, 10 uM biotin peptide on anti-GST-captured GST-PDZ
[8] = molecular target: GST-Densin PDZ domain 1 (human); assay: as above
[9] = molecular target: GST-EBP50 PDZ domain 1, clone #341.1 (human); assay: as above
[10] = molecular target: GST-EBP50 PDZ domain 2, clone #168.2 (human); assay: as above
[11] = molecular target: GST-HEMBA 1003117 PDZ domain 1, clone #226.2 (human); assay: as above
[12] = molecular target: GST-KIAA1526 PDZ domain 1, clone #119.1 (human); assay: as above
[13] = molecular target: GST-KIAA1719 PDZ domain 5 (human); assay: as above
[14] = molecular target: GST-MAGI 1 PDZ domain 5 (human); assay: as above
[15] = molecular target: GST-MINT1 PDZ domains 1, 2 (human) (UniProt Q02410); assay: as above
[16] = molecular target: GST-Magi2 PDZ domain 3 (human) (UniProt Q86UL8); assay: as above
[17] = molecular target: GST-PAR3 PDZ domain 3, clone #278.1 (human); assay: as above
[18] = molecular target: GST-PIST PDZ domain 1 (human); assay: as above
[19] = molecular target: GST-PTPL1 PDZ domain 2 (human); assay: as above

Chain of GST-Magi2 PDZ domain 3 (human) (Q86UL8 other isoform, or with tags, fused parts or gaps limits assumed, form in doubt): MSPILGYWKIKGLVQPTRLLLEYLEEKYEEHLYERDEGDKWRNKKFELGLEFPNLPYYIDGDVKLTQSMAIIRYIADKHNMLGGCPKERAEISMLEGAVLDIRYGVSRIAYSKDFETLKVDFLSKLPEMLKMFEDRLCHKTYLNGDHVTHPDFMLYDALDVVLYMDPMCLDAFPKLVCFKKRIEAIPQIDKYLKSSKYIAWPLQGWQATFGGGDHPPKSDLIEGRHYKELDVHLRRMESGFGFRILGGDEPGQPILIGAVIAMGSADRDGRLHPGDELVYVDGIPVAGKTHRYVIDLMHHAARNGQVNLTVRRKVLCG
Chain of GST-DLG-6 PDZ domain 1, clone #333.1 (human) (Q96JB8 other isoform, or with tags, fused parts or gaps): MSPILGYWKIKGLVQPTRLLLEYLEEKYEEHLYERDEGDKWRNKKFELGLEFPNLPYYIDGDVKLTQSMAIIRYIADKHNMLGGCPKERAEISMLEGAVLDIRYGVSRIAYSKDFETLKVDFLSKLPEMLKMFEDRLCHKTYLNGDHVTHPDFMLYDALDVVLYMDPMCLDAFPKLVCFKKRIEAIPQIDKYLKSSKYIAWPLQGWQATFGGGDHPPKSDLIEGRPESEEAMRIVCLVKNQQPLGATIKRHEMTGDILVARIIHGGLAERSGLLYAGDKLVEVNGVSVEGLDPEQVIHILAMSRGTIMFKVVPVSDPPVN
Chain of GST-Magi3 PDZ domain 1 (human) (Q5TCQ9 other isoform, or with tags, fused parts or gaps limits assumed, form in doubt): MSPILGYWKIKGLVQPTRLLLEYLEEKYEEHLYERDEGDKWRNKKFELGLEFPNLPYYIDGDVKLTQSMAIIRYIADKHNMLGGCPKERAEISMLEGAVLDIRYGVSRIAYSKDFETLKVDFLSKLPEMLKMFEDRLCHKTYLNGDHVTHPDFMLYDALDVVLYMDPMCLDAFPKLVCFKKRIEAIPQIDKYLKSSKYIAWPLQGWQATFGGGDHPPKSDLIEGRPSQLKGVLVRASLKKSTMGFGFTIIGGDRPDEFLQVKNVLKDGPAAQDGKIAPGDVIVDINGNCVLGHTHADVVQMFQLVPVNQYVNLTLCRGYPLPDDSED
Chain of GST-MINT1 PDZ domains 1, 2 (human) (Q02410 other isoform, or with tags, fused parts or gaps limits assumed): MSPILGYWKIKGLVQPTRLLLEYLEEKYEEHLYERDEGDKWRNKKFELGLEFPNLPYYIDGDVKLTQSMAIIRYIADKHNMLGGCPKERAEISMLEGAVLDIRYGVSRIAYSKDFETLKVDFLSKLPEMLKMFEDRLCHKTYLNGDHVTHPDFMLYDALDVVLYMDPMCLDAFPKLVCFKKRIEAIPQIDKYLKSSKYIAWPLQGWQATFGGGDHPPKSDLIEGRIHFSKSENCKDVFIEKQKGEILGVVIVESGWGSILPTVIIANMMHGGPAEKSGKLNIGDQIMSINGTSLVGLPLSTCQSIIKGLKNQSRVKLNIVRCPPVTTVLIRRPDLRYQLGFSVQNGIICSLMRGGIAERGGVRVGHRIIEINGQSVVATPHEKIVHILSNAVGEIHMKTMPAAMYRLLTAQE
Chain of GST-VARTUL PDZ domain (number not stated) (human) (Q14160 other isoform, or with tags, fused parts or gaps limits assumed): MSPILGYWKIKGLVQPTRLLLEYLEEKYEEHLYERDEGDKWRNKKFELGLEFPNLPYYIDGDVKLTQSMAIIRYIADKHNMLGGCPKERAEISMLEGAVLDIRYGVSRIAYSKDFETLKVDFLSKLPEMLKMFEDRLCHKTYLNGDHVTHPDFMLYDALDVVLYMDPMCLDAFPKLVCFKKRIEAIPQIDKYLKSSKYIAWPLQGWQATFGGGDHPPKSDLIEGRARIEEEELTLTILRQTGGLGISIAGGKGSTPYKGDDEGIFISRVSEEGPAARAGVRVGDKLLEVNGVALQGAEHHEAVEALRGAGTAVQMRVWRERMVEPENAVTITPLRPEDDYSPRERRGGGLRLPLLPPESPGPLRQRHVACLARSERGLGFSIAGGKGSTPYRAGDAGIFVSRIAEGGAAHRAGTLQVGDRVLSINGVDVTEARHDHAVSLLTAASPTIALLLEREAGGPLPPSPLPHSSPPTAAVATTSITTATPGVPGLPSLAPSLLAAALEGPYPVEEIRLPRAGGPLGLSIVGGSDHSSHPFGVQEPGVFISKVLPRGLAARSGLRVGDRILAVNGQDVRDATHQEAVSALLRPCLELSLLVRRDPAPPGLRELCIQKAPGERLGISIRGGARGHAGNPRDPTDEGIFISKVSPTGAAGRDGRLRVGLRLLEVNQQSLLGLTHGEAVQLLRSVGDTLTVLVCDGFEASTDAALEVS

GST-INADL PDZ domain 3 fusion protein
OD S/N [1]: 1.86
Ave OD [2]: 0.485 A450 nm

GST-Magi2 PDZ domain 5 fusion protein (from UniProt Q86UL8 920-1010)
OD S/N [1]: 3.93
Ave OD [2]: 0.651 A450 nm

GST-NeDLG PDZ domain 1 fusion protein
OD S/N [1]: 1.98
Ave OD [2]: 0.516 A450 nm

GST-PDZK1 PDZ domain 3 fusion protein
OD S/N [1]: 1.92
Ave OD [2]: 0.5 A450 nm

HPV16 E6 C-terminal PDZ ligand peptide (20 mer, biotinylated) (from UniProt P03126 139-158)
EC50 [3]: 0.31 µM
EC50 [4]: 0.94 µM
EC50 [5]: 0.31 µM
EC50 [6]: 0.94 µM
Ave OD [7]: 0.349 A450 nm
OD S/N (ratio to GST only well) [7]: 2.04
Ave OD [8]: 0.42 A450 nm and 0.35 A450 nm
OD S/N (ratio to GST only well) [8]: 1.96 and 1.82
Ave OD [9]: 0.43 A450 nm
OD S/N (ratio to GST only well) [9]: 1.65
Ave OD [10]: 0.345 A450 nm
OD S/N (ratio to GST only well) [10]: 1.99
Ave OD [11]: 0.36 A450 nm
OD S/N (ratio to GST only well) [11]: 1.66
Ave OD [12]: 0.425 A450 nm
OD S/N (ratio to GST only well) [12]: 1.38
Ave OD [13]: 0.39 A450 nm
OD S/N (ratio to GST only well) [13]: 1.81
Ave OD [14]: 0.432 A450 nm
OD S/N (ratio to GST only well) [14]: 1.77
Ave OD [15]: 0.365 A450 nm
OD S/N (ratio to GST only well) [15]: 1.42
Ave OD [16]: 0.416 A450 nm and 0.359 A450 nm
OD S/N (ratio to GST only well) [16]: 1.98 and 1.65
Ave OD [17]: 0.352 A450 nm
OD S/N (ratio to GST only well) [17]: 1.8
Ave OD [18]: 0.386 A450 nm
OD S/N (ratio to GST only well) [18]: 1.96
Ave OD [19]: 0.348 A450 nm
OD S/N (ratio to GST only well) [19]: 1.8

Source: patent publication US20040229298A1
